Test results from patent US20130166268.

Test system: full-length rat proMMP9(1-708) (SEQ ID NO:11)
Sequence (chain, as listed by the source): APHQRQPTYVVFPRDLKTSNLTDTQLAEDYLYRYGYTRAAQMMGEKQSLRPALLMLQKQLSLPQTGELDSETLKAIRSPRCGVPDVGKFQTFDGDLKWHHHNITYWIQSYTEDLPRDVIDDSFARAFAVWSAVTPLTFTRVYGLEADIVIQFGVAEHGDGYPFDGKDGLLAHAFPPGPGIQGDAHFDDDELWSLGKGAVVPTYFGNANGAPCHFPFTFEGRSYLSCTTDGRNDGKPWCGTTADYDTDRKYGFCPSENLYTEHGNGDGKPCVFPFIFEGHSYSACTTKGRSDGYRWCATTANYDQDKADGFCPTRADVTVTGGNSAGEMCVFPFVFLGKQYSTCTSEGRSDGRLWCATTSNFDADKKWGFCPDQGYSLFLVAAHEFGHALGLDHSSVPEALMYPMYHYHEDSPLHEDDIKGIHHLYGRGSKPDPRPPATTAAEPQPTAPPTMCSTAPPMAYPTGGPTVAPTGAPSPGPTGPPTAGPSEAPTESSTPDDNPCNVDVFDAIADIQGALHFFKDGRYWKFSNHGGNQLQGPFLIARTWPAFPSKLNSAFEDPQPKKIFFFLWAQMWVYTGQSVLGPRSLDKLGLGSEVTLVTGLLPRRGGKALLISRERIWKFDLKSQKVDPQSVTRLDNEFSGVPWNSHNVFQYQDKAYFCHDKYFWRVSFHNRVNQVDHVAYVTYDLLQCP

human catalytic MMP3, MMP3(100-265) (SEQ ID NO:8), sequence (chain, as listed by the source): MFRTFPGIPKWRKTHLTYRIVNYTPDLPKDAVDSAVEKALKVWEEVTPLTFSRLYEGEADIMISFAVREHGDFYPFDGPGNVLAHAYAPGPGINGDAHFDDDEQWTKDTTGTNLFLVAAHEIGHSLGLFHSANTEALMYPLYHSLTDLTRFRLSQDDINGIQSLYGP

human catalytic MMP3, MMP3(100-265) (SEQ ID NO:8)
conversion of proMMP9 to catalytic MMP9 (Western blot standard): full-length rat proMMP9(1-708) (SEQ ID NO:11) converted to catalytic rat MMP9 by catalytic MMP3
